Laboratory results taken from article PMC4245128, “Influence of Nonenzymatic Posttranslational Modifications on Constitution, Oligomerization and Receptor Binding of S100A12” (PLoS ONE, 2014).

B1: CEL-S100A12 prepared with 3 mM pyruvate (natural protein, UniProt P80511 1-92, looked up)
chain: MTKLEEHLEGIVNIFHQYSVRKGHFDTLSKGELKQLLTKELANTIKNIKDKAVIDEIFQGLDANQDEQVDFQEFISLVAIALKAAHYHTHKE
modifications: N-epsilon-carboxyethyllysine (CEL) on all lysine residues; carboxyethylated N-terminus; no arginine modifications (CEL rate equal to or higher than in all MGO-modified samples)
notes: S100A12 as in m1, CEL-modified by reductive amination; Heterogeneous mixture; the extent of modification is not quantified; also called CEL-modified S100A12 (3 mM pyruvate); source: E. coli One Shot BL21 (DE3), purified; reductive amination with 3 mM pyruvate and NaBH3CN at 25 °C for 16 h, excess reagent removed by ultrafiltration
B2: CEL-S100A12 prepared with 30 mM pyruvate (natural protein, UniProt P80511 1-92, looked up)
chain: MTKLEEHLEGIVNIFHQYSVRKGHFDTLSKGELKQLLTKELANTIKNIKDKAVIDEIFQGLDANQDEQVDFQEFISLVAIALKAAHYHTHKE
modifications: N-epsilon-carboxyethyllysine (CEL) on all lysine residues; carboxyethylated N-terminus; no arginine modifications (highest modification rate)
notes: S100A12 as in m1, CEL-modified by reductive amination; Heterogeneous mixture; the extent of modification is not quantified; also called CEL-modified S100A12 (30 mM pyruvate); CEL-S100A12 at the highest modification rate; source: E. coli One Shot BL21 (DE3), purified; reductive amination with 30 mM pyruvate and NaBH3CN at 25 °C for 16 h, excess reagent removed by ultrafiltration
B3: CEL-S100A12 prepared with 600 µM pyruvate (natural protein, UniProt P80511 1-92, looked up)
chain: MTKLEEHLEGIVNIFHQYSVRKGHFDTLSKGELKQLLTKELANTIKNIKDKAVIDEIFQGLDANQDEQVDFQEFISLVAIALKAAHYHTHKE
modifications: N-epsilon-carboxyethyllysine (CEL) on all lysine residues; carboxyethylated N-terminus; no arginine modifications (partial, modification rate rises with pyruvate)
notes: S100A12 as in m1, CEL-modified by reductive amination; Heterogeneous mixture; the extent of modification is not quantified; also called CEL-modified S100A12 (600 µM pyruvate); source: E. coli One Shot BL21 (DE3), purified; reductive amination with 600 µM pyruvate and NaBH3CN at 25 °C for 16 h, excess reagent removed by ultrafiltration
B4: CEL-S100A12 prepared with 15 mM pyruvate (natural protein, UniProt P80511 1-92, looked up)
chain: MTKLEEHLEGIVNIFHQYSVRKGHFDTLSKGELKQLLTKELANTIKNIKDKAVIDEIFQGLDANQDEQVDFQEFISLVAIALKAAHYHTHKE
modifications: N-epsilon-carboxyethyllysine (CEL) on all lysine residues; carboxyethylated N-terminus; no arginine modifications (partial, modification rate rises with pyruvate)
notes: S100A12 as in m1, CEL-modified by reductive amination; Heterogeneous mixture; the extent of modification is not quantified; also called CEL-modified S100A12 (15 mM pyruvate); source: E. coli One Shot BL21 (DE3), purified; reductive amination with 15 mM pyruvate and NaBH3CN at 25 °C for 16 h, excess reagent removed by ultrafiltration
B5: S100A12 incubated with 40 µM MGO (natural protein, UniProt P80511 1-92, looked up)
chain: MTKLEEHLEGIVNIFHQYSVRKGHFDTLSKGELKQLLTKELANTIKNIKDKAVIDEIFQGLDANQDEQVDFQEFISLVAIALKAAHYHTHKE
modifications: hydroimidazolone, MGO-hemiaminal/CEA, argpyrimidine and tetrahydropyrimidine at R21; CEL at K3, K30, K34, K39, K49, K83, K91; carboxyethylation of the N-terminus (partial)
notes: S100A12 as in m1, chemically modified with methylglyoxal; Heterogeneous mixture of modified and unmodified chains; also called MGO-modified S100A12 (40 µM MGO); source: E. coli One Shot BL21 (DE3), purified; incubated with 40 µM methylglyoxal at 37 °C for 1, 3 or 7 days, excess reagent removed by ultrafiltration
B6: S100A12 incubated with 4 µM MGO (natural protein, UniProt P80511 1-92, looked up)
chain: MTKLEEHLEGIVNIFHQYSVRKGHFDTLSKGELKQLLTKELANTIKNIKDKAVIDEIFQGLDANQDEQVDFQEFISLVAIALKAAHYHTHKE
modifications: hydroimidazolone (+54 Da) and MGO-hemiaminal/CEA (+72 Da) at R21 (partial, low modification degree)
notes: S100A12 as in m1, chemically modified with methylglyoxal; Heterogeneous mixture of modified and unmodified chains; also called MGO-modified S100A12 (4 µM MGO); source: E. coli One Shot BL21 (DE3), purified; incubated with 4 µM methylglyoxal at 37 °C for 1, 3 or 7 days, excess reagent removed by ultrafiltration
B7: CEL-S100A12 prepared with 300 µM pyruvate (natural protein, UniProt P80511 1-92, looked up)
chain: MTKLEEHLEGIVNIFHQYSVRKGHFDTLSKGELKQLLTKELANTIKNIKDKAVIDEIFQGLDANQDEQVDFQEFISLVAIALKAAHYHTHKE
modifications: N-epsilon-carboxyethyllysine (CEL) on all lysine residues; carboxyethylated N-terminus; no arginine modifications (partial, modification rate rises with pyruvate)
notes: S100A12 as in m1, CEL-modified by reductive amination; Heterogeneous mixture; the extent of modification is not quantified; also called CEL-modified S100A12 (300 µM pyruvate); source: E. coli One Shot BL21 (DE3), purified; reductive amination with 300 µM pyruvate and NaBH3CN at 25 °C for 16 h, excess reagent removed by ultrafiltration
B8: recombinant S100A12 (natural protein, UniProt P80511 1-92, looked up)
chain: MTKLEEHLEGIVNIFHQYSVRKGHFDTLSKGELKQLLTKELANTIKNIKDKAVIDEIFQGLDANQDEQVDFQEFISLVAIALKAAHYHTHKE
notes: N-terminal methionine only partially removed (M1S100A12 predominant); Mixture of chains with and without M1; The controls incubated without reagent are written as this molecule; also called M1S100A12; unincubated negative control; source: E. coli One Shot BL21 (DE3), purified (chitin column, on-column intein cleavage with DTT, dialysis, NAP-5)
B9: S100A12 incubated with 4 mM MGO (natural protein, UniProt P80511 1-92, looked up)
chain: MTKLEEHLEGIVNIFHQYSVRKGHFDTLSKGELKQLLTKELANTIKNIKDKAVIDEIFQGLDANQDEQVDFQEFISLVAIALKAAHYHTHKE
modifications: hydroimidazolone, MGO-hemiaminal/CEA, argpyrimidine and tetrahydropyrimidine at R21; CEL at K3, K30, K34, K39, K46, K49, K51, K83, K91; carboxyethylation of the N-terminus; a +126 Da modification not assigned to a residue
notes: S100A12 as in m1, chemically modified with methylglyoxal; no signal of the native protein left in MALDI-TOF-MS; By SEC only a small part was hexamer; also called MGO-modified S100A12 (4 mM MGO); MGO-S100A12; source: E. coli One Shot BL21 (DE3), purified; incubated with 4 mM methylglyoxal at 37 °C for 1, 3 or 7 days, excess reagent removed by ultrafiltration
B10: S100A12 incubated with 400 µM MGO (natural protein, UniProt P80511 1-92, looked up)
chain: MTKLEEHLEGIVNIFHQYSVRKGHFDTLSKGELKQLLTKELANTIKNIKDKAVIDEIFQGLDANQDEQVDFQEFISLVAIALKAAHYHTHKE
modifications: hydroimidazolone, MGO-hemiaminal/CEA, argpyrimidine and tetrahydropyrimidine at R21; CEL at K3, K30, K34, K39, K46, K49, K51, K83, K91; carboxyethylation of the N-terminus (partial)
notes: S100A12 as in m1, chemically modified with methylglyoxal; Heterogeneous mixture; by SEC a minor part was not present as hexamer; also called MGO-modified S100A12 (400 µM MGO); source: E. coli One Shot BL21 (DE3), purified; incubated with 400 µM methylglyoxal at 37 °C for 1, 3 or 7 days, excess reagent removed by ultrafiltration

Target: the molecule itself
Assay: SEC; data not shown; Superdex 75 10/300 GL, 10 mM Tris-HCl, 150 mM NaCl, 500 µM CaCl2, 10 µM ZnCl2, pH 7.4
Conditions: not given

Binder | stoichiometry N
B1 | 6
B2 | 6
B3 | 6
B4 | 6
B5 | 6
B6 | 6
B7 | 6

Target: the molecule itself
Assay: SEC; Superdex 75 10/300 GL, 10 mM Tris-HCl, 150 mM NaCl, 500 µM CaCl2, 10 µM ZnCl2, pH 7.4, 0.6 mL/min; calibrated with bovine serum albumin, carbonic anhydrase, cytochrome C and aprotinin
Conditions: not given

Binder | stoichiometry N
B8 | 6
B9 | 6
B10 | 6

Target: T1, recombinant human RAGE Fc chimera (human, UniProt Q15109 23-342)
T1 construct: receptor for advanced glycation end-products (RAGE), human; No catalogue number is printed; also called receptor for advanced glycation end-products; recombinant RAGE; source: bought: R&D Systems, from a mouse myeloma cell line
T1 sequence (Q15109 23-342, change not shown): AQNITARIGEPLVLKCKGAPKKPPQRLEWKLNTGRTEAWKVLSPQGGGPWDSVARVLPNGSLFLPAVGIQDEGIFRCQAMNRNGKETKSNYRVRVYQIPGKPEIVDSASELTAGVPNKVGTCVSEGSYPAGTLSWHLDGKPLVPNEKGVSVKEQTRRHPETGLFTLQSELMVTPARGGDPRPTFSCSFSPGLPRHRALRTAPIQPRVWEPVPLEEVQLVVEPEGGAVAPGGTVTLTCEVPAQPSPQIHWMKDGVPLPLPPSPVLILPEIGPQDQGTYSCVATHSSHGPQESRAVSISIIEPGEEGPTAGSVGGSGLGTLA
Assay: SPR; Biacore X100, 25 °C, 30 µL/min; 7200 RU of RAGE Fc chimera amine-coupled to a CM5 chip; S100A12 samples injected (180 s association, 180 s dissociation); HBS-P (10 mM HEPES, 150 mM NaCl, 0.05% surfactant 20, pH 7.4) with 500 µM CaCl2 and 10 µM ZnCl2; reference cell subtracted; response given relative to the unincubated negative control
Conditions: both partners purified

Binder | percent binding (of the control)
B1 | 80.9%
B2 | 34%
